# Assay results as given in patent US20240350588A1 (SUNSHINE LAKE PHARMA, published 2024).
# Changes are numbered by the printed parent chain.
# T1: human GFRAL (UniProtKB-Q6UXVO) (human, UniProt Q6UXV0 19-394)
# T1 sequence (looked up): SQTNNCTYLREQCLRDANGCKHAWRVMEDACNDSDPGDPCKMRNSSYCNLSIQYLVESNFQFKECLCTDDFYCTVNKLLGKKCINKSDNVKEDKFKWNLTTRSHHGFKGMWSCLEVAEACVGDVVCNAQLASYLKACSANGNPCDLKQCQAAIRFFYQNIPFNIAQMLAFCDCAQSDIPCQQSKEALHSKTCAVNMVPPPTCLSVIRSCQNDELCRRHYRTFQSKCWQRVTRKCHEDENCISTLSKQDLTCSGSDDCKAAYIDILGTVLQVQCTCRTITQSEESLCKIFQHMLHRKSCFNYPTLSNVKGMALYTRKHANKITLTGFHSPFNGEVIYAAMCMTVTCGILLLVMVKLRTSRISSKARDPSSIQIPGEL
# B1: Fc-GDF15 fusion protein M37 (Fc fusion)
# chain: APEAAGGPSVFLFPPKPKDTLMISRTPEVTCVVVDVSQEDPEVQFNWYVDGVEVHNAKTKPREEQFNSTYRVVSVLTVLHQDWLNGKEYKCKVSNKGLPSSIEKTISKAKGQPREPQVYTLPPSQEEMTKNQVSLTCLVKGFYPSDIAVEWESNGQPENNYKTTPPVLDSDGSFFLYSRLTVDKSRWQEGNVFSCSVMHEALHNHYTQESLSLSLGGGGGSGGGGSAPAPAPAPAPAPAPAPAPAPGGGGSGGGGSCRLHTVRASLEDLGWADWVLSPREVQVTMCIGACPSQFRAANMHAQIKTSLHRLKPDTVPAPCCVPASYNPMVLIQKTDTGVSLQTYDDLLAKDCHCI
# B2: Fc-GDF15 fusion protein M39 (Fc fusion)
# chain: APEAAGGPSVFLFPPKPKDTLMISRTPEVTCVVVDVSQEDPEVQFNWYVDGVEVHNAKTKPREEQFNSTYRVVSVLTVLHQDWLNGKEYKCKVSNKGLPSSIEKTISKAKGQPREPQVYTLPPSQEEMTKNQVSLTCLVKGFYPSDIAVEWESNGQPENNYKTTPPVLDSDGSFFLYSRLTVDKSRWQEGNVFSCSVMHEALHNHYTQQSLSLSLGGGGGSGGGGSAPAPAPAPAPAPAPAPAPAPGGGGSGGGGSGDHCPLGPGRCCRLHTVRASLEDLGWADWVLSPREVQVTMCIGACPSQFRAANMHAQIKTSLHRLKPDTVPAPCCVPASYNPMVLIQKTDTGVSLQTYDDLLAKDCHCI
# B3: Fc-GDF15 fusion protein M50 (Fc fusion)
# chain: B2 chain with E126Q
# B4: Fc-GDF15 fusion protein M3 (Fc fusion)
# chain: B2 chain with Q209E
# B5: Fc-GDF15 fusion protein M51 (Fc fusion)
# chain: APEAAGGPSVFLFPPKPKDTLMISRTPEVTCVVVDVSQEDPEVQFNWYVDGVEVHNAKTKPREEQFNSTYRVVSVLTVLHQDWLNGKEYKCKVSNKGLPSSIEKTISKAKGQPREPQVYTLPPSQEEMTKNQVSLTCLVKGFYPSDIAVEWESNGQPENNYKTTPPVLDSDGSFFLYSRLTVDKSRWQEGNVFSCSVMHEALHNHYTQNSLSLSLGGGGGSGGGGSAPAPAPAPAPAPAPAPAPAPGGGGSGGGGSDHCPLGPGRCCRLHTVRASLEDLGWADWVLSPREVQVTMCIGACPSQFRAANMHAQIKTSLHRLKPDTVPAPCCVPASYNPMVLIQKTDTGVSLQTYDDLLAKDCHCI
# B6: Fc-GDF15 fusion protein M7 (Fc fusion)
# chain: B5 chain with N209A
# B7: Fc-GDF15 fusion protein M8 (Fc fusion)
# chain: B5 chain with E126K, N209K
# B8: Fc-GDF15 fusion protein M6 (Fc fusion)
# chain: B5 chain with N209Q
# B9: Fc-GDF15 fusion protein M5 (Fc fusion)
# chain: B5 chain with N209D
# Biological target: T1, human GFRAL (UniProtKB-Q6UXVO)
# Test: cell-based or functional assay
row,Binder,"Relative activity ratio (native GDF15 EC50: Fc-GDF15 construct EC50), ERK1/2 phosphorylation HTRF in HEK293T cells expressing human GFRAL and RET [ratio]"
1,B1,3.17
2,B2,2.62
3,B3,1.5
4,B4,4.53
5,B5,3.16
6,B6,3.16
7,B7,1.69
8,B8,2.71
9,B9,2.47
